This passage reports Kd, koff and kon results from article PMC6856630.

Holding throughout (assay): BLI; Octet RED384; biotinylated neurexin LNS2 on streptavidin tips, Nxph in solution; 25°C, PBS pH 7.4, 50 nM TCEP, 1% BSA; global fit, double reference subtraction
(BLI is a label-free optical method that tracks binding on a fibre tip over time.)

Experiment [1] concerns the target Nrxn3 LNS2^SS2− (I401Q), AviTag-His, biotinylated (BLI) (mouse).
Experiment [2] addresses Nrxn2 LNS2^SS2− (I401Q), AviTag-His, biotinylated (BLI) (mouse).
For experiment [3], the target named is Nrxn1 LNS2^SS2AB+ (I401Q), AviTag-His, biotinylated (BLI) (mouse).
In experiment [4] the target is Nrxn3 LNS2^SS2−, AviTag-His, biotinylated (BLI) (mouse).
The target in experiment [5] is Nrxn2 LNS2^SS2−, AviTag-His, biotinylated (BLI) (mouse).
The target of experiment [6] is Nrxn1 LNS2^SS2AB+, AviTag-His, biotinylated (BLI) (mouse).

Sequence of Nxph1-2XFLAG-His (mature rat neurexophilin-1, 118-271, glycosylated) (Q63366 118-271): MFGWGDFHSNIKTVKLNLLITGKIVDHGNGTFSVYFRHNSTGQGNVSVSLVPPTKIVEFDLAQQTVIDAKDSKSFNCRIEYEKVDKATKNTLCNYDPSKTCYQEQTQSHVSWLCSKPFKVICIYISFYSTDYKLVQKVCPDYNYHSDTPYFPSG
Sequence of Nxph3-2XFLAG-His (rat neurexophilin-3, 50-252) (Q9Z2N5 50-252): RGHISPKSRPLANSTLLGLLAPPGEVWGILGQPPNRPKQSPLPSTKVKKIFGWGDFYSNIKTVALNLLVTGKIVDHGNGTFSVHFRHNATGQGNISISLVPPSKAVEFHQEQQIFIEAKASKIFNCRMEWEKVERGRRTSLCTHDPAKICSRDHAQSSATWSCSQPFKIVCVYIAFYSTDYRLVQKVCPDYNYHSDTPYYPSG

As usually defined, the Kd is the equilibrium constant for the complex coming apart. Read a high Kd as a looser complex. What is called koff is a measure of how fast the partners let go of each other. The term kon denotes a measure of how fast the partners come together. Regarding “Nxph1-2XFLAG-His (mature rat neurexophilin-1, 118-271, glycosylated) (from UniProt Q63366 118-271) (ligand)”, the Kd in experiment [1] is 1940 µM; in experiment [2] it was 39.3 µM; in experiment [3] it was 0.499 µM; in experiment [4], 0.207 µM; in experiment [5], 0.124 µM; in experiment [6], 0.0433 µM. The koff in experiment [1] stood at 0.012 s⁻¹; in experiment [2] it was 0.0025 s⁻¹; in experiment [3] it was 0.00034 s⁻¹; in experiment [4] it was 9.2e-05 s⁻¹; in experiment [5] it was 6.9e-05 s⁻¹; in experiment [6], 9.4e-05 s⁻¹. Further, the kon in experiment [1] worked out at 10.5 M⁻¹ s⁻¹; in experiment [2], 381 M⁻¹ s⁻¹; in experiment [3], 674 M⁻¹ s⁻¹; in experiment [4], 444 M⁻¹ s⁻¹; in experiment [5], 554 M⁻¹ s⁻¹; in experiment [6], 2170 M⁻¹ s⁻¹.

Take “Nxph3-2XFLAG-His (rat neurexophilin-3, 50-252) (from UniProt Q9Z2N5 50-252) (ligand)”: the Kd in experiment [1] stood at 3.5 µM; in experiment [2] it was 1.31 µM; in experiment [4] it was 0.177 µM; in experiment [5] it was 0.212 µM. Moreover, the koff in experiment [1] is 0.00053 s⁻¹; in experiment [2], 0.00044 s⁻¹; in experiment [4], 3.1e-05 s⁻¹; in experiment [5], 6.7e-05 s⁻¹. Also, the kon in experiment [1] came to 153 M⁻¹ s⁻¹; in experiment [2], 350 M⁻¹ s⁻¹; in experiment [4], 178 M⁻¹ s⁻¹; in experiment [5], 302 M⁻¹ s⁻¹.
